Assay results taken from article PMC9205888, “Efficient discrimination against RNA-containing primers by human DNA polymerase ε”.

Legend:
[1] = molecular target: T1, hPolεCD (DNA polymerase ε catalytic domain, exo-) (Homo sapiens, UniProt Q07864 27-1172, D275N;E277Q;del185-209); test: BLI; 100 mM NaCl, no dTTP/Mg2+; BLI (Octet K2): 30 mM Tris-Hepes pH 7.8, 100-150 mM NaCl, 2 mM TCEP, 0.002% Tween 20, 23 °C; EMSA: 20 mM Tris-Hepes pH 7.8, 100 mM NaCl, 2% glycerol, 2 mM TCEP, 0.2 mg/mL BSA, room temperature; settings: protein: recombinant; tags: none in final protein (N-terminal His6-Sumo cleaved); label: 5' BiotinTEG on template; template 5' overhang 9 nt and 3' overhang 3 nt
[2] = molecular target: T1, hPolεCD (DNA polymerase ε catalytic …); test: BLI; 100 mM NaCl, 50 µM dTTP, 5 mM Mg2+; BLI (Octet K2): 30 mM Tris-Hepes pH 7.8, 100-150 mM NaCl, 2 mM TCEP, 0.002% Tween 20, 23 °C; EMSA: 20 mM Tris-Hepes pH 7.8, 100 mM NaCl, 2% glycerol, 2 mM TCEP, 0.2 mg/mL BSA, room temperature; settings: protein: recombinant; tags: none in final protein (N-terminal His6-Sumo cleaved); label: 5' BiotinTEG on template; template 5' overhang 9 nt and 3' overhang 3 nt
[3] = molecular target: T1, hPolεCD (DNA polymerase ε catalytic …); test: BLI; 125 mM NaCl, no dTTP/Mg2+; BLI (Octet K2): 30 mM Tris-Hepes pH 7.8, 100-150 mM NaCl, 2 mM TCEP, 0.002% Tween 20, 23 °C; EMSA: 20 mM Tris-Hepes pH 7.8, 100 mM NaCl, 2% glycerol, 2 mM TCEP, 0.2 mg/mL BSA, room temperature; settings: protein: recombinant; tags: none in final protein (N-terminal His6-Sumo cleaved); label: 5' BiotinTEG on template; template 5' overhang 9 nt and 3' overhang 3 nt
[4] = molecular target: T1, hPolεCD (DNA polymerase ε catalytic …); test: BLI; 150 mM NaCl, no dTTP/Mg2+; BLI (Octet K2): 30 mM Tris-Hepes pH 7.8, 100-150 mM NaCl, 2 mM TCEP, 0.002% Tween 20, 23 °C; EMSA: 20 mM Tris-Hepes pH 7.8, 100 mM NaCl, 2% glycerol, 2 mM TCEP, 0.2 mg/mL BSA, room temperature; settings: protein: recombinant; tags: none in final protein (N-terminal His6-Sumo cleaved); label: 5' BiotinTEG on template; template 5' overhang 9 nt and 3' overhang 3 nt
[5] = molecular target: T1, hPolεCD (DNA polymerase ε catalytic …); test: EMSA; 100 mM NaCl, 0.5 µM DNA; active fraction titration (55.4 ± 4.3%); BLI (Octet K2): 30 mM Tris-Hepes pH 7.8, 100-150 mM NaCl, 2 mM TCEP, 0.002% Tween 20, 23 °C; EMSA: 20 mM Tris-Hepes pH 7.8, 100 mM NaCl, 2% glycerol, 2 mM TCEP, 0.2 mg/mL BSA, room temperature; settings: protein: recombinant; tags: none in final protein (N-terminal His6-Sumo cleaved); label: 5' Cy3 on primer; template 5' overhang 5 nt

T1 sequence (Q07864 other isoform, or with tags, fused parts or gaps D275N;E277Q;del185-209): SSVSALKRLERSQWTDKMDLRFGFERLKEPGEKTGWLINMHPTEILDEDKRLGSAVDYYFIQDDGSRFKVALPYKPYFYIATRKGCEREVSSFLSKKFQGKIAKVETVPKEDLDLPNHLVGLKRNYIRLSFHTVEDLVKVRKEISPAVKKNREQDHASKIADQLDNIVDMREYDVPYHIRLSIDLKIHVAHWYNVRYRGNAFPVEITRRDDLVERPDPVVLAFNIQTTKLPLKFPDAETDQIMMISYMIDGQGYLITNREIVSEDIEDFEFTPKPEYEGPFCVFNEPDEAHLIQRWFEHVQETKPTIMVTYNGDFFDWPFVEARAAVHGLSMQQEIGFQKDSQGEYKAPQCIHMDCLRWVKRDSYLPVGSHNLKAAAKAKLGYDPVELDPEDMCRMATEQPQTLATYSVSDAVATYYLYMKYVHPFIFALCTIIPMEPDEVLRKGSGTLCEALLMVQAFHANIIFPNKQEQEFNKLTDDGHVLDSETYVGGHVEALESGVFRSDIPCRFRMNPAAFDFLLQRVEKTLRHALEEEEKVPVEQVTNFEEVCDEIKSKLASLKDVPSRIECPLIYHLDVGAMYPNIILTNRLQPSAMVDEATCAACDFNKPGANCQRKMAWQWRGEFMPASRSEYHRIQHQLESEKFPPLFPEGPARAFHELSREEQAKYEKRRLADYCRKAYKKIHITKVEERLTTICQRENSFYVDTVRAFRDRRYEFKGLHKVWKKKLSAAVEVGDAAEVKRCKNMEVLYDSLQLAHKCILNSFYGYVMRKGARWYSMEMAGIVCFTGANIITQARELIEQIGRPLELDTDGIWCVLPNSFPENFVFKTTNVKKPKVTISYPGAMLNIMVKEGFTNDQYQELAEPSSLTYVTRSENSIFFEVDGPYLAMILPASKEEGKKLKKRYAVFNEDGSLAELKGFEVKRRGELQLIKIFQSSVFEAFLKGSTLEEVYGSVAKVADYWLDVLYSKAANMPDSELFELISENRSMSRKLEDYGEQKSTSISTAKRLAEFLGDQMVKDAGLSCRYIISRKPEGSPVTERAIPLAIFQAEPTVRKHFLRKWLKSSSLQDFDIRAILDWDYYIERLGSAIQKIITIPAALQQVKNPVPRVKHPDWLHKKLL

Binder	Kd [1]	other results
R11 template:primer (DNA:RNA, RNA primer) DNA: AATACATAAGCGCTCCAGGCAAT RNA: GCCUGGAGCGC	65.8 ± 8.8 nM	
D10-R1 template:primer (mixed, primer nt 1-10 DNA, nt 11 3'-deoxy-C (2'-OH)) DNA 1: AATACATAAGCGCTCCAGGCAAT DNA 2: GCCTGGAGCGC	45.6 ± 6.1 nM	
R10-D1 template:primer (mixed, primer nt 1-10 RNA, nt 11 2',3'-dideoxy-C) DNA: AATACATAAGCGCTCCAGGCAAT RNA: GCCUGGAGCGC	73 ± 14 nM	
R4-D7 template:primer (mixed, primer nt 1-4 RNA, nt 5-11 DNA, 3' ddC) DNA: AATACATAAGCGCTCCAGGCAAT RNA: GCCUGGAGCGC	58.6 ± 1.3 nM	Kd [2]: 83 ± 3.3 nM
D11 template:primer (dsDNA, primer 3'-terminal 2',3'-dideoxy-C) DNA 1: AATACATAAGCGCTCCAGGCAAT DNA 2: GCCTGGAGCGC	61.4 ± 12 nM	Kd [3]: 532 ± 53 nM; Kd [4]: 1520 ± 91 nM; Kd [2]: 120 ± 11 nM
EMSA D15 template:primer (dsDNA) DNA 1: ATTATGGCAGCTCGGAGTCC DNA 2: GGACTCCGAGCTGCC		binding result [5]: binds
R6-D5 template:primer (mixed, primer nt 1-6 RNA, nt 7-11 DNA, 3' ddC) DNA: AATACATAAGCGCTCCAGGCAAT RNA: GCCUGGAGCGC	69.8 ± 6.4 nM	
R8-D3 template:primer (mixed, primer nt 1-8 RNA, nt 9-11 DNA, 3' ddC) DNA: AATACATAAGCGCTCCAGGCAAT RNA: GCCUGGAGCGC	62.5 ± 6.1 nM	
